{"source": "patent US20250073303A1", "about": "“TDP-43 Interference Peptides, Methods, and Uses Thereof” (The University of British Columbia, priority 2022, published 2025)", "key": {"TDP-43 [1]": {"target": "T1, TDP-43 (Mus musculus, UniProt Q921F2)", "T1 sequence (Q921F2 whole entry)": "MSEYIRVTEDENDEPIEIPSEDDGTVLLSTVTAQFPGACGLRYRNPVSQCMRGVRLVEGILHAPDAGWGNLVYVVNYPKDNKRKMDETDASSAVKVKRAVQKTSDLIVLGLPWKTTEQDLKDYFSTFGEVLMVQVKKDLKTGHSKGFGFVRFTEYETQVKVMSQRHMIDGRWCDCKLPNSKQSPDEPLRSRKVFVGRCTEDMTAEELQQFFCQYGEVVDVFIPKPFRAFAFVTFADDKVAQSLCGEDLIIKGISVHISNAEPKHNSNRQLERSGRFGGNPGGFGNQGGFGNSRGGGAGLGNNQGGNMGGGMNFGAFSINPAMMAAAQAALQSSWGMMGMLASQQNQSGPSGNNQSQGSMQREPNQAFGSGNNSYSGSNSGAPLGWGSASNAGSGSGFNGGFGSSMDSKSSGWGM", "assay": "LPS (1 mg/kg daily, 7 days) plus sciatic nerve axotomy in mice: TDP-43 aggregation by western blotting", "assay_type": "in vivo", "design": "from tissue; host or cells: ventral lumbosacral spinal cord of mice, axotomy side", "details": "LPS 1 mg/kg daily i.p. for 7 days plus axotomy; 20 mg/kg i.p.; vs control mice", "procedure": "FIG. 17: Example peptide D reduces TDP-43 aggregates in lumbar spinal cord of mice with sciatic nerve axotomy and 7 days of LPS administration. Mice underwent sciatic nerve axotomy (day 0) and LPS (1 mg/kg, daily, i.p.) administration for 7 days (days 0-7). TDP-43 aggregation in lumbar spinal cord was evaluated by western blotting.\nSince LPS causes systematic inflammation, microglia activation in ventral horn of spinal cord was first detected by staining with an Iba-1 antibody. […] In this setting, motor neuron loss in the lower limb motoneuron group in L5/6 of spinal cord was observed, as confirmed by staining with ChAT and NeuN antibodies. […] TDP-43 and phosphoTDP-43 insolubility in lumbar spinal cord was also confirmed by western blotting."}, "[2]": {"test_system": "mice with LPS plus sciatic nerve axotomy", "assay": "LPS (1 mg/kg daily) plus sciatic nerve axotomy in mice: microglia activation and motor neuron death", "assay_type": "in vivo, mouse", "details": "LPS 1 mg/kg daily i.p. plus axotomy", "procedure": "FIG. 15: Example peptide D reduces microglia activation in lumbar spinal cord of mice with LPS plus sciatic nerve axotomy. Mice underwent LPS administration (1 mg/kg, daily, i.p.) plus sciatic nerve axotomy on day 0 and tissues were collected and fixed on day 7 post-surgery. Iba-1 staining of lumbar spinal cord of mice in each indicated group were counterstained with DAPI. 20 mg/kg of peptide D was injected daily through the i.p. route.\nFIG. 16: Example peptide D prevents motor neuron death in ventral horn of spinal cord (L6) of mice with LPS plus sciatic nerve axotomy. Mice underwent LPS treatment (1 mg/kg, daily, i.p.) plus sciatic nerve axotomy on day 0 and tissue was collected and fixed on day 7 post-surgery. Markers of (A) ChAT staining (red) indicating motor neurons and (B) NeuN staining (green) counterstained with DAPI indicated alpha motor neurons in ventral horn of mice in each group. […]\nAlthough neurodegeneration was detected in spinal cord of mice treated with a high dose of LPS (5 mg/kg, i.p.) plus sciatic nerve axotomy, motor neuron death was not observed in this model. […]\nSince LPS causes systematic inflammation, microglia activation in ventral horn of spinal cord was first detected by staining with an Iba-1 antibody. […]"}, "TDP-43 [3]": {"target": "T1, TDP-43", "assay": "LPS (5 mg/kg) plus sciatic nerve axotomy in mice: TDP-43 and phosphoTDP-43 aggregates", "assay_type": "in vivo", "design": "from tissue; host or cells: ventral lumbosacral spinal cord of mice, axotomy side", "details": "LPS 5 mg/kg i.p. plus axotomy, day 3 post-surgery, 10 and 20 mg/kg once daily i.p.", "procedure": "FIG. 13: Example peptide D dose dependently reduces TDP-43 and phosphoTDP-43 aggregates in lumbar spinal cord of mice with LPS plus sciatic nerve axotomy. Western blot analysis of TDP-43 and phosphoTDP-43 expression in the soluble and insoluble fraction of ipsilateral lumbar spinal cord tissue that was collected in mice three days post LPS (5 mg/kg) plus sciatic nerve axotomy procedure. Group 1: Non-surgical mice. Group 2: Control mice with LPS plus sciatic nerve axotomy. Group 3: 10 mg/kg of peptide D treatment (once daily, i.p.) in mice with LPS treatment plus sciatic nerve axotomy. Group 4: 20 mg/kg of peptide D treatment (once daily, i.p.) in mice with LPS treatment plus sciatic nerve axotomy.\nThis mouse model was further optimized by adding one dose of lipopolysaccharide (LPS) injection (5 mg/kg, i.p.) when performing surgery. LPS injection aggravated the observed TDP-43 proteinopathy as assessed at day 3 post-surgery."}}}
{"substance": "peptide D: candidate peptide from a CK-1δ binding region for TDP-43, truncated HIV-1 TAT domain added at the N-terminal (YGRKKRRQRRRGFSYDYVFDWNMLK)", "values": [{"measurement": "TDP-43 aggregation in lumbar spinal cord", "setting": "TDP-43 [1]", "value": "reduced"}, {"measurement": "general microglia activation in lumbar spinal cord (Iba-1)", "setting": "[2]; day 7, 20 mg/kg daily i.p.", "value": "reduced"}, {"measurement": "motor neuron death (ChAT and NeuN staining)", "setting": "[2]; day 7 post-surgery", "value": "less motor neuron death"}, {"measurement": "TDP-43 and phosphoTDP-43 aggregation", "setting": "TDP-43 [3]", "value": "reduced TDP-43 and phosphoTDP-43 aggregation in a dose dependent manner"}]}
